Molecular target: ApoE 130-149 (Homo sapiens) (UniProt P02649)
Assay: NMR
Conditions: modification not given

Chain of ApoE 130-149 (Homo sapiens) (P02649 130-149): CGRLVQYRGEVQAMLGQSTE

| Substance | Kd |
| --- | --- |
| LDLR LA5 (in LA45), P01130 | 730 µM |
| LDLR LA4 (in LA45), P01130 | 405 µM |

From paper PMC3263374
